Test results published in patent US11814439.

What was measured:
[1] = target: FcγIIIA Receptor on the effector cells (CD16 / FcγRIII) (human) (UniProt P08637); assay: cell-based or functional assay
[2] = target: C1q Receptor in the complement system (rabbit serum as the source of complement) (rabbit); assay: cell-based or functional assay
[3] = target: CD20 on Jeko-1, Raji and Daudi cells (human) (UniProt P11836); assay: FACS on Daudi cells, PE anti-human secondary antibody
[4] = target: CD20 on Jeko-1, Raji and Daudi cells (human) (UniProt P11836); assay: FACS on Raji cells, PE anti-human secondary antibody

Chain of FcγIIIA Receptor on the effector cells (CD16 / FcγRIII) (human) (P08637 17-254): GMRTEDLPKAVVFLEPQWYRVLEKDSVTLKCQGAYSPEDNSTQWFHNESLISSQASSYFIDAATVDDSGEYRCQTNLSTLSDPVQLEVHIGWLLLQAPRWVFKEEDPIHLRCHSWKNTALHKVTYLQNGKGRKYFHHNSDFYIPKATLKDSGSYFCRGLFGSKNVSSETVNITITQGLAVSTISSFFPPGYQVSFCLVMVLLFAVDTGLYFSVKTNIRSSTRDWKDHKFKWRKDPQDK
Chain of CD20 on Jeko-1, Raji and Daudi cells (human) (P11836 whole entry): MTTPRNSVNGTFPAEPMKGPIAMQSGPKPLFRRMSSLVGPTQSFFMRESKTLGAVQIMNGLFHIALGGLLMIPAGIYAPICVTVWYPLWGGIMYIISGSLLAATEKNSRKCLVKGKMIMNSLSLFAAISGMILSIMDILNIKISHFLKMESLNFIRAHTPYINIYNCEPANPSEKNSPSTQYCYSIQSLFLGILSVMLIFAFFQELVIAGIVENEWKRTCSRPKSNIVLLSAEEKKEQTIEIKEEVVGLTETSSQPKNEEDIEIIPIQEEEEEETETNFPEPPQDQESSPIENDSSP

Row | Substance | EC50 of ADCC assay Using Primary NK Cells [1] | CDC EC50 (Jeko-1 cells, rabbit complement) [2] | EC50 [3] | EC50 [4]
1 | RITUXAN (rituximab) (antibody) | 1390 µg/mL | 0.245 µg/mL |  | 
2 | ARZERRA (ofatumumab) (antibody) | 500 µg/mL | 0.353 µg/mL | 0.000793 ng/mL | 0.00873 ng/mL
3 | GAZYVA (obinutuzumab) (antibody) | 19 µg/mL |  |  | 
4 | OCREVUS (ocrelizumab) (antibody) |  | 1.21 µg/mL |  | 
